Experimental data reported in patent EP4755449A2 (CHUGAI SEIYAKU KABUSHIKI KAISHA, dated 2026).
Changes are numbered by the printed parent chain. Numbers in names are those of the source.

B1: MS_M103205H795-SG1/M103202L889-SK1 (antibody, human IgG1, kappa)
heavy: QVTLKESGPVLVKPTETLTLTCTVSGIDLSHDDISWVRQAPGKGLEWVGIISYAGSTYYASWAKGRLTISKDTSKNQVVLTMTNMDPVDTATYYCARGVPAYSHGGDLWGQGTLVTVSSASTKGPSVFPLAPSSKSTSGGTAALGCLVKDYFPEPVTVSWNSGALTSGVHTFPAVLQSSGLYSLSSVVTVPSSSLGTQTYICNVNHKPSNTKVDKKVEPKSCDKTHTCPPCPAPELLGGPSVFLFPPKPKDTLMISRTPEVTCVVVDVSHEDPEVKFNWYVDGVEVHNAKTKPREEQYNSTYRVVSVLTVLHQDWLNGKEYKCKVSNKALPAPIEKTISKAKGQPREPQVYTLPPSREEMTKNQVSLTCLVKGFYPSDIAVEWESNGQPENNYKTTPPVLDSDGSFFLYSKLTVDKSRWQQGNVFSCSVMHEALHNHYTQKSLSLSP
light: DIVMTQSPATLSLSPGERATLSCTSSQSVYHANWLSWFQQKPGQPPKLLIYWASTLAYGVPSRFSGSGSGTDFTLTISSLQPEDAATYYCAGGYGGGRYAFGQGTKVEIKRTVAAPSVFIFPPSDEQLKSGTASVVCLLNNFYPREAKVQWKVDNALQSGNSQESVTEQDSKDSTYSLSSTLTLSKADYEKHKVYACEVTHQGLSSPVTKSFNRGEC
notes: also called MS1032LO06-SG1
B2: MS_M103205H1046-SG1/M103202L889-SK1 (antibody, human IgG1, kappa, V domains shown)
VH: QVTLKESGPVLVKPTETLTLTCTVSGIDLSHTDISWVRQAPGKGLEWVGIISYAGKTYYASWAKKRLTISKDTSKNQVVLTMTNMDPVDTATYYCARGVPAYSHGGDLWGQGTLVTVSS
VL: DIVMTQSPATLSLSPGERATLSCTSSQSVYHANWLSWFQQKPGQPPKLLIYWASTLAYGVPSRFSGSGSGTDFTLTISSLQPEDAATYYCAGGYGGGRYAFGQGTKVEIKR
notes: also called MS1032LO10-SG1
B3: MS_M103205H1047-SG1/M103202L889-SK1 (antibody, human IgG1, kappa, V domains shown)
VH: B2 VH with T57K, K65G
VL: B2 VL
notes: also called MS1032LO11-SG1
B4: MS_M103205H1004-SG1/M103202L889-SK1 (antibody, human IgG1, kappa, V domains shown)
VH: B2 VH with T32D, K56S, T57M, K65G, L108K
VL: B2 VL
notes: also called MS1032LO07-SG1
B5: MS_M103245H795-SG1/M103202L1045-SK1 (antibody, human IgG1, kappa, V domains shown)
VH: B2 VH with T23K, T32D, G49S, K56S, K65G
VL: B2 VL with S25T, A32E
notes: also called MS1032LO21-SG1
B6: MS_M103245H1233-SG1/M103202L1045-SK1 (antibody, human IgG1, kappa, V domains shown)
VH: B2 VH with T23K, T32E, G49S, K56S, K65G
VL: B2 VL with S25T, A32E
notes: also called MS1032LO23-SG1
B7: MS_M103205H1057-SG1/M103202L889-SK1 (antibody, human IgG1, kappa, V domains shown)
VH: B2 VH with K56S, T57K, Y59K, K65G
VL: B2 VL
notes: also called MS1032LO12-SG1
B8: MS_M103205H795-SG1/M103202L1060-SK1 (antibody, human IgG1, kappa, V domains shown)
VH: B2 VH with T32D, K56S, K65G
VL: B2 VL with Y30F, A32E, Y58W
notes: also called MS1032LO24-SG1
B9: MS_M103205H707-SG1/M103202L802-SK1 (antibody, human IgG1, kappa, V domains shown)
VH: B2 VH with T32Y, K56S, K65G
VL: B2 VL with A32D, R98L
notes: also called MS1032LO04-SG1
B10: MS_M103205H781-SG1/M103202L719-SK1 (antibody, human IgG1, kappa, V domains shown)
VH: B2 VH with K56S, A60M, K65G
VL: B2 VL with T24Q, A32N, Y58F, R98L
notes: also called MS1032LO02-SG1
B11: MS_M103205H781-SG1/M103202L813-SK1 (antibody, human IgG1, kappa, V domains shown)
VH: B2 VH with K56S, A60M, K65G
VL: B2 VL with T24Q, S25T, A32D, Y58S
notes: also called MS1032LO03-SG1
B12: M103205H795-SG1 S298L/M103202L889-SK1 (antibody, human IgG1, kappa)
heavy: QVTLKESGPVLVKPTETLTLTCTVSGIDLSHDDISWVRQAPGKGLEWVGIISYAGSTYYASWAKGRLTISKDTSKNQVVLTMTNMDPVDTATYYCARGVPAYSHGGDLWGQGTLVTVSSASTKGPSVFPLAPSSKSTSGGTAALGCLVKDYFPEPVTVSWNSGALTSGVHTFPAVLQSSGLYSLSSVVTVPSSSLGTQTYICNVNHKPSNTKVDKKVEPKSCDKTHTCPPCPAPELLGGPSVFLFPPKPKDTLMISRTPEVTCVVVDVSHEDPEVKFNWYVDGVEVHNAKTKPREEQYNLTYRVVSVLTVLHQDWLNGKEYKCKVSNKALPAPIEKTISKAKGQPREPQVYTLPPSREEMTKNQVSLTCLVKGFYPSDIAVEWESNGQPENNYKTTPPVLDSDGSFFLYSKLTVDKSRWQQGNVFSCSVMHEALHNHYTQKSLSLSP
light: B1 light
notes: copies: 2 + 2
B13: M103205H795-SG1 S267A/M103202L889-SK1 (antibody, human IgG1, kappa)
heavy: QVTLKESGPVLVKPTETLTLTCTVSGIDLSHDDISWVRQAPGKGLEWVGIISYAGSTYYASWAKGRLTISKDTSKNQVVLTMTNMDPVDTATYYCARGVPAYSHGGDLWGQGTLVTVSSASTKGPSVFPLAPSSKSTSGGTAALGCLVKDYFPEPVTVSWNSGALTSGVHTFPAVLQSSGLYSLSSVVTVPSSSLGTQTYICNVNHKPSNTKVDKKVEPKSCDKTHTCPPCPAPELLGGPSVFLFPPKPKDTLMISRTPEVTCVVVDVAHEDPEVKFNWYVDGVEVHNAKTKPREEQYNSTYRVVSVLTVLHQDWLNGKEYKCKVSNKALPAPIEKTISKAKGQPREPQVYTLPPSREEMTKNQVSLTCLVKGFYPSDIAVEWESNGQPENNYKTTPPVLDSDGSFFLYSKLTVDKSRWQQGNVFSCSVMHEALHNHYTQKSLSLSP
light: B1 light
notes: copies: 2 + 2
B14: M103205H795-SG1 S239V/M103202L889-SK1 (antibody, human IgG1, kappa)
heavy: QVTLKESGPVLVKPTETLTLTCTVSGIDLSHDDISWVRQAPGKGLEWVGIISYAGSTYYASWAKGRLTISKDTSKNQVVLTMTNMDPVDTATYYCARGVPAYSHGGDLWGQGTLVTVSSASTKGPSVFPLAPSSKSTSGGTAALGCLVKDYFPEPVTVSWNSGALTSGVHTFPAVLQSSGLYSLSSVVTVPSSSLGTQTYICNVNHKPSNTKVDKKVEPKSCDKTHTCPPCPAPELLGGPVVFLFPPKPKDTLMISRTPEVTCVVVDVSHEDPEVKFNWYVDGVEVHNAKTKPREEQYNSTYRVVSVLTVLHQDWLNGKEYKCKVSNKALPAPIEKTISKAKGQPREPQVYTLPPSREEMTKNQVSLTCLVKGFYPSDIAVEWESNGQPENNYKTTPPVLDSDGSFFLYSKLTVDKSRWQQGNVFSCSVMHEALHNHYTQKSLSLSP
light: B1 light
notes: copies: 2 + 2

Each binder was assayed against T1, cynomolgus monkey latent myostatin (cynomolgus monkey, UniProt Q95J86 25-266; Q95J86 267-375, limits assumed) (assay: SPR 37C pH7.4; pH 7.4).
T1 construct: also called cyno latent myostatin
T1 sequence 1: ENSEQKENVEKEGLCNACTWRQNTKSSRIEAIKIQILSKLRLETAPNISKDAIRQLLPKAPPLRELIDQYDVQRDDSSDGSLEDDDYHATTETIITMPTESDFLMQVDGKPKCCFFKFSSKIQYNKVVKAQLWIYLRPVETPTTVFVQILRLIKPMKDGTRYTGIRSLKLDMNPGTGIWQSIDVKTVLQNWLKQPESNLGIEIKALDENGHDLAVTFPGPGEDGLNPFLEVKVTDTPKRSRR
T1 sequence 2: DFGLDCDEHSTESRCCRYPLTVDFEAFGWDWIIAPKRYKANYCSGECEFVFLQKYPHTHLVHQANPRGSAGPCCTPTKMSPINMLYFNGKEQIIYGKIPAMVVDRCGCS
B1 was tested, and the Kd was 0.343 nM.
B2 was tested, and the Kd was 0.419 nM.
Binder B3 has a Kd of 0.502 nM.
B4 showed a Kd of 0.339 nM.
With B5 the Kd was 0.309 nM.
B6 was tested, and the Kd was 0.299 nM.
B7 gave a Kd of 0.492 nM.
B8 was tested, and the Kd was 0.189 nM.

These binders were tested against T2, mouse latent myostatin (mouse, UniProt O08689 26-267; O08689 268-376) (assay: SPR 37C pH7.4; pH 7.4).
T2 sequence 1: T1 sequence 1 with N2G, Q5R, K6E, T19A, K25R, S26Y, K59R, V107A, E140K, N173S
T2 sequence 2: T1 sequence 2
Work on B1 yielded a Kd of 0.299 nM.
In the case of B2, the Kd is reported as 0.314 nM.
B3 showed a Kd of 0.362 nM.
B4 was tested, and the Kd was 0.319 nM.
In the case of B5, the Kd is reported as 0.261 nM.
B6 showed a Kd of 0.266 nM.
B7 was tested, and the Kd was 0.413 nM.
Work on B8 yielded a Kd of 0.176 nM.

These binders were tested against T3, human latent myostatin (human, UniProt O14793 25-266; O14793 267-375) (assay: SPR 37C pH7.4; pH 7.4).
T3 construct: non-covalent complex of two propeptides and the mature homodimer; also called human myostatin latent form
T3 sequence 1: T1 sequence 1 with A52V
T3 sequence 2: T1 sequence 2
In the case of B1, the Kd is reported as 0.285 nM.
B2 was tested, and the Kd was 0.351 nM.
For B3, the Kd was 0.419 nM.
B4 was tested, and the Kd was 0.275 nM.
With B5 the Kd was 0.257 nM.
In the case of B6, the Kd is reported as 0.26 nM.
B7 gave a Kd of 0.407 nM.
Work on B8 yielded a Kd of 0.164 nM.

What follows are binders tested against T1, cynomolgus monkey latent myostatin (assay: SPR 37C).
With B1 the “ratio of KD at pH 5.8/pH7.4” value was 76.
B2 was tested, and the “ratio of KD at pH 5.8/pH7.4” value was 38.
For B3, the “ratio of KD at pH 5.8/pH7.4” value was 87.
For B4, the “ratio of KD at pH 5.8/pH7.4” value was 102.
B5 was tested, and the “ratio of KD at pH 5.8/pH7.4” value was 100.
In the case of B6, the “ratio of KD at pH 5.8/pH7.4” value is reported as 26.
With B7 the “ratio of KD at pH 5.8/pH7.4” value was 73.
With B8 the “ratio of KD at pH 5.8/pH7.4” value was 5.

Each binder was assayed against T2, mouse latent myostatin (assay: SPR 37C).
With B1 the “ratio of KD at pH 5.8/pH7.4” value was 76.
B2 was tested, and the “ratio of KD at pH 5.8/pH7.4” value was 35.
For B3, the “ratio of KD at pH 5.8/pH7.4” value was 81.
With B4 the “ratio of KD at pH 5.8/pH7.4” value was 97.
With B5 the “ratio of KD at pH 5.8/pH7.4” value was 113.
With B6 the “ratio of KD at pH 5.8/pH7.4” value was 24.
With B7 the “ratio of KD at pH 5.8/pH7.4” value was 60.
For B8, the “ratio of KD at pH 5.8/pH7.4” value was 6.

Each binder was assayed against T3, human latent myostatin (assay: SPR 37C).
In the case of B1, the “ratio of KD at pH 5.8/pH7.4” value is reported as 119.
In the case of B2, the “ratio of KD at pH 5.8/pH7.4” value is reported as 125.
B3 was tested, and the “ratio of KD at pH 5.8/pH7.4” value was 341.
In the case of B4, the “ratio of KD at pH 5.8/pH7.4” value is reported as 168.
In the case of B5, the “ratio of KD at pH 5.8/pH7.4” value is reported as 204.
In the case of B6, the “ratio of KD at pH 5.8/pH7.4” value is reported as 62.
In the case of B7, the “ratio of KD at pH 5.8/pH7.4” value is reported as 209.
With B8 the “ratio of KD at pH 5.8/pH7.4” value was 9.

Each binder was assayed against T1, cynomolgus monkey latent myostatin (assay: SPR 37C pH5.8; pH 5.8).
With B1 the Kd was 25.9 nM.
B2 was tested, and the Kd was 16.1 nM.
With B3 the Kd was 43.5 nM.
With B4 the Kd was 34.7 nM.
Work on B5 yielded a Kd of 31 nM.
Binder B6 has a Kd of 7.71 nM.
For B7, the Kd was 35.8 nM.
In the case of B8, the Kd is reported as 0.929 nM.

These binders were tested against T2, mouse latent myostatin (assay: SPR 37C pH5.8; pH 5.8).
In the case of B1, the Kd is reported as 22.6 nM.
B2 showed a Kd of 10.9 nM.
Work on B3 yielded a Kd of 29.2 nM.
Work on B4 yielded a Kd of 30.8 nM.
For B5, the Kd was 29.4 nM.
For B6, the Kd was 6.4 nM.
Binder B7 has a Kd of 24.8 nM.
B8 was tested, and the Kd was 1.02 nM.

These binders were tested against T3, human latent myostatin (assay: SPR 37C pH5.8; pH 5.8).
Binder B1 has a Kd of 34 nM.
For B2, the Kd was 43.8 nM.
For B3, the Kd was 143 nM.
B4 was tested, and the Kd was 46.2 nM.
With B5 the Kd was 52.3 nM.
In the case of B6, the Kd is reported as 16.1 nM.
For B7, the Kd was 84.9 nM.
B8 gave a Kd of 1.52 nM.

Each binder was assayed against T3, human latent myostatin (assay: SPR affinity condition pH7.4 37C).
In the case of B9, the Kd is reported as 0.812 nM, the koff is reported as 0.00125 s⁻¹ and the kon is reported as 1.54e+06 M⁻¹ s⁻¹.
Binder B10 has a Kd of 1.64 nM, a koff of 0.00179 s⁻¹ and a kon of 1.08e+06 M⁻¹ s⁻¹.
B11 showed a Kd of 1.08 nM, a koff of 0.00117 s⁻¹ and a kon of 1.08e+06 M⁻¹ s⁻¹.

Target: T4, cyno Fc gamma RIIb extracellular domain, His-tagged (cynomolgus monkey)
T4 construct: also called cynoFcgRIIb
T4 chain: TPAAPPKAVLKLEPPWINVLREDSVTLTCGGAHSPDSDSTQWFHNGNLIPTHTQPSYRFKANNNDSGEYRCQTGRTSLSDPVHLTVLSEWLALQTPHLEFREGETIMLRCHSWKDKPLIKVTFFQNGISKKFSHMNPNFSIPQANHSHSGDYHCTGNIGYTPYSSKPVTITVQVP
Assay: SPR 25C
B12: binds.
B13: binds.
B14: binds.

What follows are binders tested against T5, human Fc gamma RIIb extracellular domain, His-tagged (human, UniProt P31994 43-217) (assay: SPR 25C).
T5 construct: also called FcgRIIb
T5 sequence: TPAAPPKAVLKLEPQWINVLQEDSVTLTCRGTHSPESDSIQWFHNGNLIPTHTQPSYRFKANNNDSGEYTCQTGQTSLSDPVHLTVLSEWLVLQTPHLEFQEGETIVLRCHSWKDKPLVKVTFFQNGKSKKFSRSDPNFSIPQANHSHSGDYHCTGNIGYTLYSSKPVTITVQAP
B12: binds.
B13: binds.
B14: binds.

These binders were tested against T3, human latent myostatin (assay: SPR avidity condition pH5.8 37C; pH 5.8).
B9 was tested, and the Kd was 9.13 nM, the koff was 0.00713 s⁻¹ and the kon was 781000 M⁻¹ s⁻¹.
Work on B10 yielded a Kd of 24.3 nM, a koff of 0.0414 s⁻¹ and a kon of 1.7e+06 M⁻¹ s⁻¹.
B11 showed a Kd of 9.66 nM, a koff of 0.00524 s⁻¹ and a kon of 543000 M⁻¹ s⁻¹.

The binders below were run against T3, human latent myostatin (assay: SPR avidity condition pH7.4 37C; pH 7.4).
For B9, the Kd was 0.163 nM, the koff was 0.000217 s⁻¹ and the kon was 1.33e+06 M⁻¹ s⁻¹.
Work on B10 yielded a Kd of 0.298 nM, a koff of 0.000249 s⁻¹ and a kon of 836000 M⁻¹ s⁻¹.
B11 gave a Kd of 0.196 nM, a koff of 0.000192 s⁻¹ and a kon of 981000 M⁻¹ s⁻¹.
